The test system of series [1] is prostate cancer cells (LNCaP cell line). Description: Anticancer effect, acridine orange / propidium iodide staining, confocal microscope. In kind it is cell-based. Conditions: 2 hours treatment, 24 hours culture, NIR radiation 10 minutes, 10 μM contained doxorubicin. Here is the method: In addition, after the cells were treated with 10 μM (concentration of the contained doxorubicin) of the multifunctional nucleic-acid-based anticancer drug for 2 hours, the medium was exchanged with a fresh RPMI 1640 medium to remove the multifunctional nucleic-acid-based anticancer drug remaining at an outside of the cells, and the cells were cultured for 24 hours. Afterward, the cells were irradiated with […] for 10 minutes, and stained with acridine orange and propidium iodide (PI). As a control group, instead of the multifunctional nucleic-acid-based anticancer drug, a test was performed using phosphate buffered saline, doxorubicin, gold nanoparticles, an A10 aptamer and an anticancer-drug-captured nucleic acid structure.
This means that the multifunctional nucleic-acid-based anticancer drug can kill cells more effectively by applying both doxorubicin (chemotherapy) and an exothermic effect (thermal treatment).

Series [2] can be described thus: Capture of doxorubicin in linear nucleic acid, autofluorescence of unbound doxorubicin in supernatant. Particulars: per 1 μM linear nucleic acid (SEQ ID NOs 1 and 2); room temperature, 24 hours. It counts as physicochemical. An excerpt:
A supernatant was retrieved, and autofluorescence of the doxorubicin not binding to the linear nucleic acid was detected using a molecular device (SpectraMax M2 Microplate Reader).

With `COc1cccc2c1C(=O)c1c(O)c3c(c(O)c1C2=O)C[C@@](O)(C(=O)CO)C[C@@H]3O[C@H]1C[C@H](N)[C@H](O)[C@H](C)O1` [doxorubicin, reference compound], the “cell death (PI staining, red fluorescence)” value in series [1] is “dead cells stained with PI were observed”.

B1: linear nucleic acid (nucleic acid)
chain 1: GCTACGAGTAGGTACGGATCTGGCTGTACTGATGTGCCTGCGAC
chain 2: GTCGCAGGCACATCAGTACAGCCAGATCCGTACCTACTCG
modifications: chemistry not given here
For B1, in series [2], the “maximum doxorubicin bound per 1 μM linear nucleic acid” value stood at 10 µM. Further, the “cell death (PI staining, red fluorescence)” value in series [1] is listed as “red fluorescence was hardly observed”.
